Experimental data published in PMC9581999.

Target: FKBP12-rapamycin binding domain of mTOR (FRB)

FK506 binding protein (FKBP) (from UniProt P62942 1-108) (natural protein)
bioluminescence of the single-chain molecular strain probe F-R86SG-F (FRB-RLuc86SG-FKBP) in COS-7 cells, 10^-6 M rapamycin for 5 h against vehicle (0.1% DMSO), substrate K5; fold intensity: 1.6 fold
bioluminescence of the single-chain molecular strain probe F-R86SG-F (FRB-RLuc86SG-FKBP) in COS-7 cells, 10^-6 M rapamycin for 5 h against vehicle (0.1% DMSO), substrate K6; fold intensity: 3.1 fold
